In patent CN112592401A:

Molecular target: 灭活非洲猪瘟病毒抗原 (非洲猪瘟全病毒)
Experiment: ELISA with whole ASFV, as in Fig. 6 (scFv coated, inactivated ASFV captured)

B1: 抗非洲猪瘟病毒的ScFv抗体VH-VLλ11 (scFv)
scFv: MEVKLVESGGGLVQPGGSLRLSCVGSEYEFRGSLIHWVRQAPGKGLEWLATICTTDPITEYADSVKGRFTISRDSSQNTAYLQMDSLRGEDTARYYCGVAFSYGGGCHRMDLRGQGVEVVVGGGGSGGMSQTVIQEPAMSVSPGGTVTLTCAFSSGSESTRKYPIRFQQTPGQPPRLLIYHTNSRPTGVPSRFSGAISGNKAALTITGAQAEDEADYFCSLYIRTYNVPFGGGTHLTVL
- OD450nm: 1.12 OD450nm
